# Experimental data taken from article PMC8659124, “Structural Analysis of Saccharomyces cerevisiae Dihydroorotase Reveals Molecular Insights into the Tetramerization Mechanism” (Molecules, 2021).
# Values joined by “and” are separate entries in the source; they are usually repeats but may differ in a detail not shown here. Equal entries are not always repeated.
# Assays:
# [1] = target: Klebsiella pneumonia DHOase (Klebsiella pneumonia); assay: cross-linking; glutaraldehyde 1%, individual DHOase 3 uM, 4 C, 20 min; Coomassie Blue-stained SDS-PAGE
# [2] = target: DHOase domain of human CAD (human); assay: as above
# [3] = target: the molecule itself; assay: as above
# [4] = target: the molecule itself; assay: SEC; Superdex 200 prep grade, protein 10 mg/mL in 20 mM MES, 100 mM NaCl, pH 6.0, 0.5 mL/min; calibrated with proteins of known molecular weight
# [5] = target: the molecule itself; assay: cross-linking; glutaraldehyde 0.5%, DHOase 3 uM, 4 C, 20 min; Coomassie Blue-stained SDS-PAGE
# [6] = target: the molecule itself; assay: crystal structure; complex form I with malate, 16% PEG 4000, 100 mM imidazole-malate, pH 7.0, room temperature; PDB 6L0A, 1.79 A, space group P2(1), four molecules per asymmetric unit
# Chain of Klebsiella pneumonia DHOase (enzyme) (A6T7D6 whole entry): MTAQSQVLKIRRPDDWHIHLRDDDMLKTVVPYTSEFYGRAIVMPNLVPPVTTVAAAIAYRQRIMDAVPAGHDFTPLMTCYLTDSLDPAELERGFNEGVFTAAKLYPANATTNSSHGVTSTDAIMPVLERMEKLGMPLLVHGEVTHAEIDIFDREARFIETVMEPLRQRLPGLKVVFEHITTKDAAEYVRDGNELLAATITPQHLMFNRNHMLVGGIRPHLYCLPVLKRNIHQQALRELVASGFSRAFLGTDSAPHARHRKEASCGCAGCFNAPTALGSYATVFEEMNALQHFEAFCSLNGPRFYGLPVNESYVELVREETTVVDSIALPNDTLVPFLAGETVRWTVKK
molecule,measurement,setting,value
Klebsiella pneumonia DHOase (enzyme),stoichiometry N,[1],2
DHOase domain of human CAD (domain or fragment),stoichiometry N,[2],2
"Salmonella enterica serovar Typhimurium LT2 DHOase (enzyme, UniProt P06204 1-348, looked up, Dihydroorotase of Salmonella enterica serovar Typhimurium LT2; also called StDHOase) MTAPSQVLKIRRPDDWHVHLRDGDMLKTVVPYTSEIYGRAIVMPNLASPITTVDAAIAYRQRILDAVPAGHDFTPLMTCYLTDSLDADELERGFHEGVFTAAKLYPANATTNSSHGVTSVDAIMPVLERMEKLGIPLLVHGEVTHADVDIFDREARFIDTVMEPLRQRLTALKVVFEHITTKDAAQYVRDGNDYLAATITPQHLMFNRNDMLVGGIRPHLYCLPILKRNIHQQALRELVASGFTRAFLGTDSAPHSRHRKETSCGCAGCFNAPSALGSYAAVFEEMNALAHFEAFCSLNGPQFYGLPMNTGWVELVRDEQQIPGNIALADDSLVPFLAGETVRWSVKK",stoichiometry N,[3],2
"Saccharomyces cerevisiae dihydroorotase (enzyme, carbamylated lysine (Kcx) at 98, Dihydroorotase of Saccharomyces cerevisiae, the monofunctional DHOase encoded by an independent gene; monomer about 40 kDa; Two Zn ions and malate in the active site of each subunit in the crystals; also called ScDHOase; DHOase) MVQEIDLGLTCDMHVHVREGAMCELVTPKIRDGGVSIAYIMPNLQPPITTLDRVIEYKKTLQKLAPKTTFLMSFYLSKDLTPDLIHEAAQQHAIRGVKCYPAGVTTNSAAGVDPNDFSAFYPIFKAMQEENLVLNLHGEKPSVHDGDKEPIHVLNAEEAFLPALKKLHNDFPNLKIILEHCTSESAIKTIEDINKNVKKATDVKVAATLTAHHLFLTIDDWAGNPVNFCKPVAKLPNDKKALVKAAVSGKPYFFFGSDSAPHPVQNKANYEGVCAGVYSQSFAIPYIAQVFEEQNALENLKGFVSDFGISFYEVKDSEVASSDKAILFKKEQVIPQVISDGKDISIIPFKAGDKLSWSVRWEPR",stoichiometry N,[4],~2 and ~4.1
same,stoichiometry N,[5],2
same,stoichiometry N,[6],4
